Experimental data as given in the supplement of paper PMC5998384.

What was measured:
HeLa Kyoto [1] = assay: solubility change mitosis vs G1/S (difference of NP-40 vs SDS log2 ratios) (log2 ratio difference); higher = more soluble in mitosis
HeLa Kyoto [2] = assay: solubility in G1/S (NP-40 vs SDS abundance) (log2 ratio); higher = more soluble; conditions: cell cycle stage: G1/S
HeLa Kyoto [3] = assay: thermal stability score vs G1/S (z-score of summed log2 fold changes over temperatures); higher = more thermally stable than in G1/S
HeLa Kyoto [4] = assay: melting temperature (median over replicates), in situ; higher = more thermally stable
[5] = cell cycle stage: early G1 (4.5 h after nocodazole release)
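Wherever melting temperature (median over replicates), in situ is given: HeLa Kyoto cells synchronized by double thymidine or nocodazole block, proteins quantified by TMT10plex mass spectrometry, three independent biological replicates.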
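Wherever solubility change mitosis vs G1/S (difference of NP-40 vs SDS log2 ratios) is given: synchronized HeLa Kyoto cells (double thymidine block for G1/S, nocodazole release for mitosis), protein amounts in NP-40 versus SDS lysates quantified by mass spectrometry, three biological replicates.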
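Wherever solubility in G1/S (NP-40 vs SDS abundance) is given: HeLa Kyoto cells arrested at G1/S by double thymidine block, proteins quantified by TMT10plex mass spectrometry in mild NP-40 versus SDS extracts, three biological replicates.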
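Wherever thermal stability score vs G1/S (z-score of summed log2 fold changes over temperatures) is given: synchronized HeLa Kyoto cells, proteins quantified by TMT10plex mass spectrometry, three biological replicates, mitosis taken 0.5 h after nocodazole release, G1/S directly after double thymidine block.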

MALGLKCFRMVHPTFRNYLAASIRPVSEVTLKTVHERQHGHRQYMAYSAVPVRHFATKKAKAKGKGQSQTRVNINAALVEDIINLEEVNEEMKSVIEALKDNFNKTLNIRTSPGSLDKIAVVTADGKLALNQISQISMKSPQLILVNMASFPECTAAAIKAIRESGMNLNPEVEGTLIRVPIPQVTREHREMLVKLAKQNTNKAKDSLRKVRTNSMNKLKKSKDTVSEDTIRLIEKQISQMADDTVAELDRHLAVKTKELLG [MRRF]
solubility change mitosis (log2) (HeLa Kyoto [1]): 0.328 | solubility in G1/S (log2) (HeLa Kyoto [2]): 0.605 | thermal stability score (HeLa Kyoto [3]; [5]): -2.43 | thermal stability score (HeLa Kyoto [3]; cell cycle stage: mitosis): -2.36 | melting temperature (HeLa Kyoto [4]; cell cycle stage: G1/S): 50.1 °C | melting temperature (HeLa Kyoto [4]; cell cycle stage: mitosis): 51.3 °C

MSRGPSSAVLPSALGSRKLGPRSLSCLSDLDGGVALEPRACRPPGSPGRAPPPTPAPSGCDPRLRPIILRRARSLPSSPERRQKAAGAPGAACRPGCSQKLRVRFADALGLELAQVKVFNAGDDPSVPLHVLSRLAINSDLCCSSQDLEFTLHCLVPDFPPPVEAADFGERLQRQLVCLERVTCSDLGISGTVRVCNVAFEKQVAVRYTFSGWRSTHEAVARWRGPAGPEGTEDVFTFGFPVPPFLLELGSRVHFAVRYQVAGAEYWDNNDHRDYSLTCRNHALHMPRGECEESWIHFI [PPP1R3D]
solubility change mitosis (log2) (HeLa Kyoto [1]): -0.164 | solubility in G1/S (log2) (HeLa Kyoto [2]): 0.0302 | thermal stability score (HeLa Kyoto [3]; [5]): -0.613 | thermal stability score (HeLa Kyoto [3]; cell cycle stage: mitosis): -0.713 | melting temperature (HeLa Kyoto [4]; cell cycle stage: G1/S): 51.7 °C | melting temperature (HeLa Kyoto [4]; cell cycle stage: mitosis): 50.8 °C

MGSQVSVESGALHVVIVGGGFGGIAAASQLQALNVPFMLVDMKDSFHHNVAALRASVETGFAKKTFISYSVTFKDNFRQGLVVGIDLKNQMVLLQGGEALPFSHLILATGSTGPFPGKFNEVSSQQAAIQAYEDMVRQVQRSRFIVVVGGGSAGVEMAAEIKTEYPEKEVTLIHSQVALADKELLPSVRQEVKEILLRKGVQLLLSERVSNLEELPLNEYREYIKVQTDKGTEVATNLVILCTGIKINSSAYRKAFESRLASSGALRVNEHLQVEGHSNVYAIGDCADVRTPKMAYLAGLHANIAVANIVNSVKQRPLQAYKPGALTFLLSMGRNDGVGQISGFYVGRLMVRLTKSRDLFVSTSWKTMRQSPP [AIFM2]
solubility change mitosis (log2) (HeLa Kyoto [1]): -0.209 | solubility in G1/S (log2) (HeLa Kyoto [2]): 0.112 | thermal stability score (HeLa Kyoto [3]; [5]): -1.05 | thermal stability score (HeLa Kyoto [3]; cell cycle stage: mitosis): -2.26 | melting temperature (HeLa Kyoto [4]; cell cycle stage: G1/S): 55.3 °C | melting temperature (HeLa Kyoto [4]; cell cycle stage: mitosis): 53.7 °C

MLWSGCRRFGARLGCLPGGLRVLVQTGHRSLTSCIDPSMGLNEEQKEFQKVAFDFAAREMAPNMAEWDQKELFPVDVMRKAAQLGFGGVYIQTDVGGSGLSRLDTSVIFEALATGCTSTTAYISIHNMCAWMIDSFGNEEQRHKFCPPLCTMEKFASYCLTEPGSGSDAASLLTSAKKQGDHYILNGSKAFISGAGESDIYVVMCRTGGPGPKGISCIVVEKGTPGLSFGKKEKKVGWNSQPTRAVIFEDCAVPVANRIGSEGQGFLIAVRGLNGGRINIASCSLGAAHASVILTRDHLNVRKQFGEPLASNQYLQFTLADMATRLVAARLMVRNAAVALQEERKDAVALCSMAKLFATDECFAICNQALQMHGGYGYLKDYAVQQYVRDSRVHQILEGSNEVMRILISRSLLQE [ACAD8]
solubility change mitosis (log2) (HeLa Kyoto [1]): -0.0672 | solubility in G1/S (log2) (HeLa Kyoto [2]): -0.0509 | thermal stability score (HeLa Kyoto [3]; [5]): -0.89 | thermal stability score (HeLa Kyoto [3]; cell cycle stage: mitosis): -3.82 | melting temperature (HeLa Kyoto [4]; cell cycle stage: G1/S): 54.9 °C | melting temperature (HeLa Kyoto [4]; cell cycle stage: mitosis): 55.2 °C

MISAAQLLDELMGRDRNLAPDEKRSNVRWDHESVCKYYLCGFCPAELFTNTRSDLGPCEKIHDENLRKQYEKSSRFMKVGYERDFLRYLQSLLAEVERRIRRGHARLALSQNQQSSGAAGPTGKNEEKIQVLTDKIDVLLQQIEELGSEGKVEEAQGMMKLVEQLKEERELLRSTTSTIESFAAQEKQMEVCEVCGAFLIVGDAQSRVDDHLMGKQHMGYAKIKATVEELKEKLRKRTEEPDRDERLKKEKQEREEREKEREREREERERKRRREEEEREKERARDRERRKRSRSRSRHSSRTSDRRCSRSRDHKRSRSRERRRSRSRDRRRSRSHDRSERKHRSRSRDRRRSKSRDRKSYKHRSKSRDREQDRKSKEKEKRGSDDKKSSVKSGSREKQSEDTNTESKESDTKNEVNGTSEDIKSEGDTQSN [LUC7L3]
solubility change mitosis (log2) (HeLa Kyoto [1]): 0.0899 | solubility in G1/S (log2) (HeLa Kyoto [2]): -0.95 | thermal stability score (HeLa Kyoto [3]; [5]): 0.00947 | thermal stability score (HeLa Kyoto [3]; cell cycle stage: mitosis): 2.68 | melting temperature (HeLa Kyoto [4]; cell cycle stage: G1/S): 50.1 °C | melting temperature (HeLa Kyoto [4]; cell cycle stage: mitosis): 50.8 °C

MEVAVEKAVAAAAAASAAASGGPSAAPSGENEAESRQGPDSERGGEAARLNLLDTCAVCHQNIQSRAPKLLPCLHSFCQRCLPAPQRYLMLPAPMLGSAETPPPVPAPGSPVSGSSPFATQVGVIRCPVCSQECAERHIIDNFFVKDTTEVPSSTVEKSNQVCTSCEDNAEANGFCVECVEWLCKTCIRAHQRVKFTKDHTVRQKEEVSPEAVGVTSQRPVFCPFHKKEQLKLYCETCDKLTCRDCQLLEHKEHRYQFIEEAFQNQKVIIDTLITKLMEKTKYIKFTGNQIQNRIIEVNQNQKQVEQDIKVAIFTLMVEINKKGKALLHQLESLAKDHRMKLMQQQQEVAGLSKQLEHVMHFSKWAVSSGSSTALLYSKRLITYRLRHLLRARCDASPVTNNTIQFHCDPSFWAQNIINLGSLVIEDKESQPQMPKQNPVVEQNSQPPSGLSSNQLSKFPTQISLAQLRLQHMQQQVMAQRQQVQRRPAPVGLPNPRMQGPIQQPSISHQQPPPRLINFQNHSPKPNGPVLPPHPQQLRYPPNQNIPRQAIKPNPLQMAFLAQQAIKQWQISSGQGTPSTTNSTSSTPSSPTITSAAGYDGKAFGSPMIDLSSPVGGSYNLPSLPDIDCSSTIMLDNIVRKDTNIDHGQPRPPSNRTVQSPNSSVPSPGLAGPVTMTSVHPPIRSPSASSVGSRGSSGSSSKPAGADSTHKVPVVMLEPIRIKQENSGPPENYDFPVVIVKQESDEESRPQNANYPRSILTSLLLNSSQSSTSEETVLRSDAPDSTGDQPGLHQDNSSNGKSEWLDPSQKSPLHVGETRKEDDPNEDWCAVCQNGGELLCCEKCPKVFHLSCHVPTLTNFPSGEWICTFCRDLSKPEVEYDCDAPSHNSEKKKTEGLVKLTPIDKRKCERLLLFLYCHEMSLAFQDPVPLTVPDYYKIIKNPMDLSTIKKRLQEDYSMYSKPEDFVADFRLIFQNCAEFNEPDSEVANAGIKLENYFEELLKNLYPEKRFPKPEFRNESEDNKFSDDSDDDFVQPRKKRLKSIEERQLLK [TRIM24]
solubility change mitosis (log2) (HeLa Kyoto [1]): -0.117 | solubility in G1/S (log2) (HeLa Kyoto [2]): -0.0643 | thermal stability score (HeLa Kyoto [3]; [5]): 2.07 | thermal stability score (HeLa Kyoto [3]; cell cycle stage: mitosis): 4.99 | melting temperature (HeLa Kyoto [4]; cell cycle stage: G1/S): 48.8 °C | melting temperature (HeLa Kyoto [4]; cell cycle stage: mitosis): 50.2 °C

MLLNGDCPESLKKEAAAAEPPRENGLDEAGPGDETTGQEVIVIQDTGFSVKILAPGIEPFSLQVSPQEMVQEIHQVLMDREDTCHRTCFSLHLDGNVLDHFSELRSVEGLQEGSVLRVVEEPYTVREARIHVRHVRDLLKSLDPSDAFNGVDCNSLSFLSVFTDGDLGDSGKRKKGLEMDPIDCTPPEYILPGSRERPLCPLQPQNRDWKPLQCLKVLTMSGWNPPPGNRKMHGDLMYLFVITAEDRQVSITASTRGFYLNQSTAYHFNPKPASPRFLSHSLVELLNQISPTFKKNFAVLQKKRVQRHPFERIATPFQVYSWTAPQAEHAMDCVRAEDAYTSRLGYEEHIPGQTRDWNEELQTTRELPRKNLPERLLRERAIFKVHSDFTAAATRGAMAVIDGNVMAINPSEETKMQMFIWNNIFFSLGFDVRDHYKDFGGDVAAYVAPTNDLNGVRTYNAVDVEGLYTLGTVVVDYRGYRVTAQSIIPGILERDQEQSVIYGSIDFGKTVVSHPRYLELLERTSRPLKILRHQVLNDRDEEVELCSSVECKGIIGNDGRHYILDLLRTFPPDLNFLPVPGEELPEECARAGFPRAHRHKLCCLRQELVDAFVEHRYLLFMKLAALQLMQQNASQLETPSSLENGGPSSLESKSEDPPGQEAGSEEEGSSASGLAKVKELAETIAADDGTDPRSREVIRNACKAVGSISSTAFDIRFNPDIFSPGVRFPESCQDEVRDQKQLLKDAAAFLLSCQIPGLVKDCMEHAVLPVDGATLAEVMRQRGINMRYLGKVLELVLRSPARHQLDHVFKIGIGELITRSAKHIFKTYLQGVELSGLSAAISHFLNCFLSSYPNPVAHLPADELVSKKRNKRRKNRPPGAADNTAWAVMTPQELWKNICQEAKNYFDFDLECETVDQAVETYGLQKITLLREISLKTGIQVLLKEYSFDSRHKPAFTEEDVLNIFPVVKHVNPKASDAFHFFQSGQAKVQQGFLKEGCELINEALNLFNNVYGAMHVETCACLRLLARLHYIMGDYAEALSNQQKAVLMSERVMGTEHPNTIQEYMHLALYCFASSQLSTALSLLYRARYLMLLVFGEDHPEMALLDNNIGLVLHGVMEYDLSLRFLENALAVSTKYHGPKALKVALSHHLVARVYESKAEFRSALQHEKEGYTIYKTQLGEDHEKTKESSEYLKCLTQQAVALQRTMNEIYRNGSSANIPPLKFTAPSMASVLEQLNVINGILFIPLSQKDLENLKAEVARRHQLQEASRNRDRAEEPMATEPAPAGAPGDLGSQPPAAKDPSPSVQG [CLUH]
solubility change mitosis (log2) (HeLa Kyoto [1]): -0.119 | solubility in G1/S (log2) (HeLa Kyoto [2]): -0.0434 | thermal stability score (HeLa Kyoto [3]; [5]): 0.526 | thermal stability score (HeLa Kyoto [3]; cell cycle stage: mitosis): -0.315 | melting temperature (HeLa Kyoto [4]; cell cycle stage: G1/S): 51.1 °C | melting temperature (HeLa Kyoto [4]; cell cycle stage: mitosis): 50.1 °C
